Literature values as cited in paper PMC9852560.

Target: laminin gamma1 (UniProt P02468)
Assay: SEC

Sequence of UniProt P02468 (P02468 34-1607): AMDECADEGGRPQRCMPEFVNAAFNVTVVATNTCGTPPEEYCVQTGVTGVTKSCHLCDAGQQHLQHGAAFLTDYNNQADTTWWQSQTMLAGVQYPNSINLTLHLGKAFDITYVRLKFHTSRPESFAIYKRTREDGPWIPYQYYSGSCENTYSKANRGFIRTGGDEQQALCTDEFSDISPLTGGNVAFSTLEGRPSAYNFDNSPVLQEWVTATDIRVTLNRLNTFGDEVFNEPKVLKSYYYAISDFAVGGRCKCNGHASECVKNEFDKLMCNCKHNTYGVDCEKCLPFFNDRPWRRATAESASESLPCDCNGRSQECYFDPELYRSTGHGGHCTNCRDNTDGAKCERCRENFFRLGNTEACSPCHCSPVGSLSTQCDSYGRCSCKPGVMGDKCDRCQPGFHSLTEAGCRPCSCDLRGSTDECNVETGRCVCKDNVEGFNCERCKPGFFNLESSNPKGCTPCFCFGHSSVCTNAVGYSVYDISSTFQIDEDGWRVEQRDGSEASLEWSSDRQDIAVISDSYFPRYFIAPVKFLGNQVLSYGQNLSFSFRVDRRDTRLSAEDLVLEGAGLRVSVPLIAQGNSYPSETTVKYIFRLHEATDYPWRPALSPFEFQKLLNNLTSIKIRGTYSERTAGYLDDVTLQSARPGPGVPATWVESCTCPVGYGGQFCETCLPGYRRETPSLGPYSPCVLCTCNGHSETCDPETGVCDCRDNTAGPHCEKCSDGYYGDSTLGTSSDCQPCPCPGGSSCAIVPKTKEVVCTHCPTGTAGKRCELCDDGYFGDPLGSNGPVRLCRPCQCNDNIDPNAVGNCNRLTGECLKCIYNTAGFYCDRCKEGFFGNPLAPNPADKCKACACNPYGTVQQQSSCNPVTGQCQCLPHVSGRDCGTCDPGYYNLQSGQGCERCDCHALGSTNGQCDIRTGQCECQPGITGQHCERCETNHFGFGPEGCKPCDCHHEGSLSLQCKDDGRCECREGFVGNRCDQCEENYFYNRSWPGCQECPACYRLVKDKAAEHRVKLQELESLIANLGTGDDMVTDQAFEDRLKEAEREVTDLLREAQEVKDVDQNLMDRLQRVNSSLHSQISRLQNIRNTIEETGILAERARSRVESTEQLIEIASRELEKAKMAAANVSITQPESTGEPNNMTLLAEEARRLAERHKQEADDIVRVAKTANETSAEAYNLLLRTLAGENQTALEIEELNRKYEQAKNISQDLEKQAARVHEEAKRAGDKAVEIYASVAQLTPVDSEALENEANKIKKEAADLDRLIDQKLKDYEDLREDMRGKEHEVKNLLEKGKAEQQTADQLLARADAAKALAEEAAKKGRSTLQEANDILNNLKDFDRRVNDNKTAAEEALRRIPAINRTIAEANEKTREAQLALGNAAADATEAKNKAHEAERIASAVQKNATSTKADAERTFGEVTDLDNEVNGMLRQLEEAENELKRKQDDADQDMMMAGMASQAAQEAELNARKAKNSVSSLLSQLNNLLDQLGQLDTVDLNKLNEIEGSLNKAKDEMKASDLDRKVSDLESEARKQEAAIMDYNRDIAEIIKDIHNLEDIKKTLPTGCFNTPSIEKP

Kd: 21 µM
Substance: laminin beta1 (from UniProt P02469)
